From PMC1838920

Target: T1, His6-CIII (bacteriophage lambda CIII) (bacteriophage lambda), P03044
T1 chain: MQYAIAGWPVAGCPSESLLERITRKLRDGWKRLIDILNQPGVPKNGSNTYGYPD
Assay: cross-linking; 10 µM His6-CIII in PBS with 0.1 mg/ml BSA at 42°C, 0.25% glutaraldehyde for 1 or 5 minutes, stopped by 200 mM glycine; NuPAGE and western blot against the His6 tag
Details: remark: other sources report otherwise

B1: His6-CIII (bacteriophage lambda CIII), P03044 1-54 (natural protein)
chain: T1 chain
stoichiometry N: < 12
